Results: the supplement of paper PMC9112550, “Optimization of the antimicrobial peptide Bac7 by deep mutational scanning” (BMC Biology, 2022)

test system: Escherichia coli TOP10; test: shrunken log2 fold change of peptide-encoding DNA abundance (4.5 h post-induction vs induction); higher = less antimicrobial activity (less host growth inhibition); settings: time post-induction: 4.5 h; library: site-saturation at positions 5, 18, 19, 20
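Also: peptides expressed intracellularly from a pBAD plasmid library in pooled LB shake-flask culture, induced with 0.3% L-arabinose, DNA abundance read by NGS, three biological replicates, DESeq2 with apeglm shrinkage.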

Sequence	shrunken log2 fold change
RRIRERPPRLPRPRPRPTMLPRP	0.00422
RRIRCRPPRLPRPRPRPCPCPRP	-1.35
RRIRARPPRLPRPRPRPVAMPRP	0.383
RRIRPRPPRLPRPRPRPRCGPRP	0.282
RRIRMRPPRLPRPRPRPMTWPRP	0.0101
RRIRSRPPRLPRPRPRPNHDPRP	-0.69
RRIRLRPPRLPRPRPRPDYFPRP	-0.146
RRIRKRPPRLPRPRPRPFKTPRP	0.427
RRIRMRPPRLPRPRPRPRCAPRP	1.12
RRIRCRPPRLPRPRPRPVTKPRP	0.217
RRIRMRPPRLPRPRPRPYFKPRP	-0.647
RRIRWRPPRLPRPRPRPIKPPRP	-0.0158
RRIRCRPPRLPRPRPRPVRTPRP	0.39
RRIRPRPPRLPRPRPRPKPAPRP	0.157
RRIRQRPPRLPRPRPRPDSVPRP	-0.0518
RRIRTRPPRLPRPRPRPLDCPRP	-0.294
RRIRNRPPRLPRPRPRPFFPPRP	-0.122
RRIRCRPPRLPRPRPRPYTMPRP	-0.382
RRIRGRPPRLPRPRPRPPMVPRP	0.277
RRIRFRPPRLPRPRPRPQRYPRP	-0.139
RRIRGRPPRLPRPRPRPQDDPRP	0.114
RRIRKRPPRLPRPRPRPCDQPRP	-0.0132
RRIRFRPPRLPRPRPRPACEPRP	-0.0985
RRIRYRPPRLPRPRPRPCHHPRP	-0.12
RRIRPRPPRLPRPRPRPVRWPRP	0.819

Sequence	shrunken log2 fold change
RRIRTRPPRLPRPRPRPSTPPRP	-0.195
RRIRRRPPRLPRPRPRPLMYPRP	0.0279
RRIRNRPPRLPRPRPRPLLKPRP	-0.539
RRIRERPPRLPRPRPRPARKPRP	0.00472
RRIRFRPPRLPRPRPRPDDNPRP	-0.137
RRIRQRPPRLPRPRPRPFIYPRP	-0.372
RRIRMRPPRLPRPRPRPFGPPRP	-0.159
RRIRWRPPRLPRPRPRPHHWPRP	0.13
RRIRVRPPRLPRPRPRPARSPRP	-0.024
RRIRKRPPRLPRPRPRPYCLPRP	-0.17
RRIRRRPPRLPRPRPRPRVCPRP	0.89
RRIRIRPPRLPRPRPRPRSSPRP	0.152
RRIRYRPPRLPRPRPRPTNMPRP	-0.541
RRIRWRPPRLPRPRPRPCQRPRP	1.03
RRIRFRPPRLPRPRPRPHDFPRP	-0.199
RRIRIRPPRLPRPRPRPHQNPRP	-0.165
RRIRERPPRLPRPRPRPKPMPRP	0.21
RRIRNRPPRLPRPRPRPCLNPRP	-0.0299
RRIRHRPPRLPRPRPRPLYCPRP	-0.327
RRIRARPPRLPRPRPRPRLVPRP	0.512
RRIRWRPPRLPRPRPRPQVYPRP	-0.015
RRIRDRPPRLPRPRPRPQPCPRP	-0.0957
RRIRVRPPRLPRPRPRPGSWPRP	0.463
RRIRLRPPRLPRPRPRPVDPPRP	-0.0136
RRIRPRPPRLPRPRPRPERDPRP	0.195

Sequence	shrunken log2 fold change
RRIRYRPPRLPRPRPRPNQDPRP	-0.406
RRIRPRPPRLPRPRPRPTTKPRP	0.253
RRIRGRPPRLPRPRPRPGKHPRP	0.384
RRIRKRPPRLPRPRPRPLQWPRP	0.0701
RRIRIRPPRLPRPRPRPKQNPRP	-0.197
RRIRFRPPRLPRPRPRPFHEPRP	-0.649
RRIRCRPPRLPRPRPRPYCNPRP	-1.19
RRIRLRPPRLPRPRPRPMIRPRP	-0.154
RRIRGRPPRLPRPRPRPQQPPRP	0.423
RRIRRRPPRLPRPRPRPAMCPRP	0.319
RRIRHRPPRLPRPRPRPIDQPRP	0.0834
RRIRARPPRLPRPRPRPKSGPRP	0.166
RRIRPRPPRLPRPRPRPWAKPRP	-0.0178
RRIRNRPPRLPRPRPRPRVQPRP	-0.00489
RRIRVRPPRLPRPRPRPDTWPRP	-0.407
RRIRPRPPRLPRPRPRPDDIPRP	-0.0962
RRIRMRPPRLPRPRPRPGHYPRP	-0.196
RRIRQRPPRLPRPRPRPEYCPRP	-0.0411
RRIRLRPPRLPRPRPRPCQAPRP	0.0641
RRIRWRPPRLPRPRPRPTVVPRP	0.134
RRIRWRPPRLPRPRPRPFDNPRP	-0.114
RRIRERPPRLPRPRPRPFQQPRP	-0.0184
RRIRFRPPRLPRPRPRPYAFPRP	-0.193
RRIRQRPPRLPRPRPRPDAAPRP	1.08
RRIRTRPPRLPRPRPRPCACPRP	0.0169
